{
  "source": "patent US12383572B2",
  "about": "“Administration of an anti-activin-a compound to a subject” (AMGEN INC., priority 2013, dated 2025)",
  "molecules": {"B1": {"name": "sActRIIB: extracellular domain of human activin type-2B receptor fused to IgG2 Fc; full length SEQ ID NO: 21 (Table 9) (protein, listed as Homo sapiens)", "chain": "ETRWCIYYNANWELERTNQSGLERCEGEQDKRLHCYASWRNSSGTIELVKKGCWLDDFNCYDRQECVATEENPQVYFCCCEGNFCNERFTHLPEAGGPEVTYEPPPTAPTGGGGSVECPPCPAPPVAGPSVFLFPPKPKDTLMISRTPEVTCVVVDVSHEDPEVQFNWYVDGVEVHNAKTKPREEQFNSTFRVVSVLTVVHQDWLNGKEYKCKVSNKGLPAPIEKTISKTKGQPREPQVYTLPPSREEMTKNQVSLTCLVKGFYPSDIAVEWESNGQPENNYKTTPPMLDSDGSFFLYSKLTVDKSRWQQGNVFSCSVMHEALHNHYTQKSLSLSPGK"}},
  "key": {"[1]": {"system": "Smad2 signaling", "assay": "Western blot of phospho-Smad2 in inh-KO tumors", "format": "in vivo, mouse", "settings": "inh-KO mice, increase vs WT controls", "protocol": "Protein extracts were prepared from cell cultures or tissues in T-PER tissue protein extraction reagent (Pierce) containing a mixture of protease inhibitors (Roche). A pool of 50 μg total protein for each group containing equal amounts of protein extract isolated from individual animals was separated by NuPAGE 4-12% Bis-Tris gel (Invitrogen) and transferred to PVDF. The membranes were probed with primary antibodies against total Smad2, p-Smad2 or E-cadherin (1:1000; Cell Signaling), endoglin, osteopontin (1:500; R & D Systems), IGFBP-1, IGFBP-2 (1:500; Abcam) followed by HRP-conjugated secondary antibody (1:2000; Cell Signaling). The membranes were stripped and re-probed with antibody against α-tubulin (1:1000; Cell Signaling)."}, "[2]": {"system": "ovarian and testicular tumors", "assay": "Light microscopy (H & E) of inh-KO ovaries and testes", "format": "in vivo, mouse", "description": "Testes and ovaries from inh-KO mice were fixed with Zinc-formalin. Tissue sections were subjected to H & E staining and then examined with a Nikon Eclipse 90i microscope."}, "[3]": {"system": "caspase-3", "assay": "Active caspase-3 immunostaining of inh-KO tumor sections", "format": "in vivo, mouse", "settings": "ovarian and testicular tissue sections, regions of residual tumor cells", "protocol": "(§1) Zinc-formalin fixed paraffin tumor tissue sections of 4 μm in thickness were prepared. The sections were subjected to antigen retrieval by microwave 3 min in Unmask solution (Vector H-3300) followed by incubation in 10 μg/ml Proteinase-K for 20 min and in 1% H2O2 in dH2O for 10 min at room temperature. The sections were further incubated in 0.1% Tween-20 in PBS for 3 min to permeabilize the cell membrane and in goat serum for 30 min to block non-specific binding. The sections were then incubated at room temperature with specific primary antibody for 3 hours followed by incubation in biotinylated or fluorescently labeled secondary antibody. Substrate developed in Vector SG kit (SK-4700) or DAB and nuclear-counterstained in Vector Fast Red (H-3403) or in hematoxylin. The immunostained tissue sections were analyzed and photographed using a Nikon Eclipse 90i microscope equipped with DS-Ril camera. The primary antibodies used and their dilutions are as follows: VEGF (BD Pharmingen 550549) 1:20 or VEGF (Abcam ab46154) 1:100, active caspase-3 (Abcam ab32042) 1:50, Ang-1 (Abcam ab8451) 1:500, osteopontin (Abcam ab8448) 1:200, CD-31 (Abcam ab56299) 1:100, E-cadherin (Abcam ab76319) 1:80. For immunofluorescence staining, FITC-conjugated secondary antibody (Invitrogen) was added at 1:50 dilution in PBS and incubated for 30 min. Cell nuclei were counterstained with Vectashield PE (Vector)."}, "[4]": {"system": "TOV-21G ovarian cancer xenografts", "assay": "TOV-21G xenograft growth in nude mice, activin-A antagonists alone", "format": "in vivo, human", "settings": "sActRIIB 30 mg/kg SC 1x/week, activin-A antibody 30 mg/kg SC 2x/week, from day 12, vs PBS", "protocol": "TOV-21G xenograft. 5×10^6 TOV-21G ovarian cancer cells were implanted subcutaneously into individual female athymic nu/nu mice (Harlan). Treatment was initiated at day 12 after tumor implantation, when the average tumor volume reached approximately 150 mm^3. The mice received PBS, sActRIIB (30 mg/kg, SC, 1×/week) or activin-A antibody (30 mg/kg, SC, 2×/week). In a separate chemotherapy combination experiment, the mice were treated with PBS, sActRIIB (10 mg/kg, SC, 1×/week), 5-FU (50 mg/kg, IP, 3 cycles, 4 daily injections per cycle) or sActRIIB and 5-FU combination at the same doses above. For all xenograft experiments, the tumor sizes were measured longitudinally by using an electronic caliper. Immediately prior to the 1st dose, the tumor-bearing mice were randomized to ensure even distribution in tumor sizes across different groups. Tumor volumes (mm^3) were calculated as tumor length (mm)×tumor width (mm)×tumor height (mm). Tumor weights were determined by necropsy."}, "[5]": {"system": "TOV-21G tumors (apoptosis)", "assay": "Active caspase-3 immunostaining and TUNEL assay on TOV-21G tumor sections", "format": "in vivo, human", "settings": "TOV-21G xenograft tumors", "protocol": "as §1, with “The primary antibodies used and their dilutions are as follows: VEGF (BD Pharmingen 550549) 1:20 or VEGF (Abcam ab46154) 1:100, active caspase-3 (Abcam ab32042) 1:50, Ang-1 (Abcam ab8451) 1:500, osteopontin (Abcam ab8448) 1:200, CD-31 (Abcam ab56299) 1:100, E-cadherin (Abcam ab76319) 1:80. For immunofluorescence staining, FITC-conjugated secondary antibody (Invitrogen) was added at 1:50 dilution in PBS and incubated for 30 min. Cell nuclei were counterstained with Vectashield PE (Vector).” left out\nCell apoptosis in TOV-21G tumors was analyzed by measuring the amounts of fragmented DNA in the tumor sections using the DeadEnd Fluorometric TUNEL System following the manufacturer's recommended protocols (Promega, G3250). The fluorescein-12-dUTP-labeled DNA was visualized by Nikon fluorescence microscopy."}, "[6]": {"assay": "sActRIIB and doxorubicin in TOV-21G tumor-bearing nude mice: body weight and muscle mass", "format": "in vivo, mouse", "protocol": "(§2) The objective of the present study was to examine the effect of pharmacological administration of sActRIIB, doxorubicin (dox), and sActRIIB plus doxorubicin, respectively, on body weight, tumor growth and muscle mass in nude mice implanted with TOV-21G ovarian xenograft tumors. Eight-week-old female Athymic nude mice were SC injected with 0.2 mL of 5×10^6 TOV-21G cells into the left site of the lower flank of the mice. After 10 days of tumor implantation, the mice were divided into 4 groups by body weight and tumor size and then treated with vehicle, sActRIIB, doxorubicin or the combination of sActRIIB and doxorubicin. In addition, a group of non-tumor bearing mice was used as normal control and received PBS.\n(§3) Mice were weighed weekly. Body weight data were recorded longitudinally. Tumor size was measured longitudinally by using an electronic caliper. The following formula was used to calculate actual tumor volume (Tomayko M and Reynolds C, 1989): (Volume of a rectangular solid tumor: Tumor volume (mm^3)=length (mm)×width (mm)×height (mm) of tumor). At the end of the study, mice in all groups were subjected to terminal necropsy and lean carcass weight (excluding skin, adipose tissue, internal organs, and head) was determined by using standard anatomical dissection procedures. […] All results were expressed as the mean±SEM (standard error of the mean). […]"}, "[7]": {"system": "TOV-21G ovarian xenograft tumors", "assay": "sActRIIB and doxorubicin in TOV-21G tumor-bearing nude mice: tumor size and weight", "format": "in vivo, human", "settings": "sActRIIB 10 mg/kg SC 1x/week, DOX 2 mg/kg IP 1x/week; 4-week study", "protocol": "as §2, §3"}},
  "data": [
    {"molecule": "B1", "values": [
      {"measurement": "phospho-Smad2 in the tumor tissues", "setting": "[1]", "result": "eliminated this increase in phospho-Smad2"},
      {"measurement": "ovarian morphology by light microscopy", "setting": "[2]; female inh-KO mice", "result": "the ovaries were normal in size and contained many recognizable follicles, minimal tumor cell invasion and few hemorrhagic lesions"},
      {"measurement": "testicular morphology by light microscopy", "setting": "[2]; male inh-KO mice", "result": "the testes were normal in size and filled with seminiferous tubules, although the number of spermatogonia was less than normal and a few small areas still contained tumor cells"},
      {"measurement": "active caspase-3 immunostaining", "setting": "[3]", "result": "strong immunostaining of active caspase-3"},
      {"measurement": "growth of TOV-21G xenografts (tumor volume)", "setting": "[4]", "result": "significantly inhibited the growth"},
      {"measurement": "active caspase-3 and DNA fragmentation (TUNEL)", "setting": "[5]", "result": "profound increases in active caspase-3 and DNA fragmentation"},
      {"measurement": "body weight", "setting": "[6]; TOV-21G tumor-bearing nude mice, sActRIIB 10 mg/kg SC 1x/week, DOX 2 mg/kg IP 1x/week", "result": "effectively prevented the weight loss"},
      {"measurement": "lean carcass weight and calf muscle mass", "setting": "[6]; TOV-21G-implanted nude mice, necropsy at end of 4-week experiment", "result": "prevented the loss in lean carcass weight and calf muscle mass"},
      {"measurement": "tumor size and tumor weight vs vehicle-treated TOV-21G group", "setting": "[7]", "result": "capable of inhibiting TOV-21G tumor growth"}
    ]}
  ]
}
